Article PMC13147308, “Investigating the molecular mechanisms underlying the anti‐CRISPR function of AcrIIA13b protein”

Biological target: T1, AcrIIA13b (shAcrIIA13b) (Staphylococcus haemolyticus, UniProt A0AAX7FLQ9 1-129)
T1 sequence: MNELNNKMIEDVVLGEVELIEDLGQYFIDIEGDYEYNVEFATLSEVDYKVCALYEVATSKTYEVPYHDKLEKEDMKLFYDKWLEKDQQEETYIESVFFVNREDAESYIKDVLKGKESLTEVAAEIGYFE
Experiment: EMSA; no Cas9; Cas9 EMSA: 100 mM NaCl, 50 mM Tris/HCl pH 8.0, 100 ug/mL BSA, 37 C (AcrIIA13b step at RT); 99 nM SauCas9, 90 nM sgRNA, 1.4 nM DNA, 4% gel 0.5x TBE
Settings: protein: recombinant; tags: C-terminal His6 (pET21a); a tag-free version also exists; chain copies: 2; label: none (SYBR Gold stain); single strand, sgRNA hairpins

B1: SauCas9 sgRNA (structured_RNA)
RNA: GCAGCUGAUCAGGAACAGCGGUUUUAGUACUCUGGAAACAGAAUCUACUAAAACAAGGCAAAAUGCCGUGUUUAUCUCGUCAACUUGUUGGCGAGAUUU
- binding result: no binding
